B1: ScctPheRS (Saccharomyces cerevisiae cytoplasmic PheRS; Yeast ct) (Saccharomyces cerevisiae S288C) (protein)
chain: SDFQLEILKKLDELDEIKSTLATFPQHGSQDVLSALNSLKAHNKLEFSKVDTVTYDLTKEGAQILNEGSYEIKLVKLIQELGQLQIKDVMSKLGPQVGKVGQARAFKNGWIAKNASNELELSAKLQNTDLNELTDETQSILAQIKNNSHLDSIDAKILNDLKKRKLIAQGKITDFNVTKGPEFSTDLTKLETDLTSDMVSTNAYKDLKFKPYNFNSQGVQISSGALHPLNKVREEFRQIFFSMGFTEMPSNQYVETGFWNFDALYVPQQHPARDLQDTFYIKDPLTADLPDDKTYMDNIKAVHEQGRFGSIGYRYNWKPEECQKLVLRTHSTAISARMLHDLAKDPKPTRLFSIDRVFRNEAVDATHLAEFHQVEGVLADYNITLGDLIKFMEEFFERMGVTGLRFKPTYNPYTEPSMEIFSWHEGLQKWVEIGNSGMFRPEMLESMGLPKDLRVLGWGLSLERPTMIKYKVQNIRELLGHKVSLDFIETNPAARLDEDLYE
notes: His-tagged purified cytoplasmic enzyme; (alpha beta)2 heterotetramer; with Phenylalanine--tRNA ligase beta subunit
B2: EcPheRS (E. coli phenylalanine-tRNA synthetase) (Escherichia coli K-12) (protein)
chain: MSHLAELVASAKAAISQASDVAALDNVRVEYLGKKGHLTLQMTTLRELPPEERPAAGAVINEAKEQVQQALNARKAELESAALNARLAAETIDVSLPGRRIENGGLHPVTRTIDRIESFFGELGFTVATGPEIEDDYHNFDALNIPGHHPARADHDTFWFDTTRLLRTQTSGVQIRTMKAQQPPIRIIAPGRVYRNDYDQTHTPMFHQMEGLIVDTNISFTNLKGTLHDFLRNFFEEDLQIRFRPSYFPFTEPSAEVDVMGKNGKWLEVLGCGMVHPNVLRNVGIDPEVYSGFAFGMGMERLTMLRYGVTDLRSFFENDLRFLKQFK
notes: His-tagged, from plasmid pQE31-EcFRS (pheS and pheT), dialysed against PPi; (alpha beta)2 heterotetramer; with Phenylalanine--tRNA ligase beta subunit

Tests used:
Test in all cases: ATP/PPi exchange (amino acid activation)
[1] = substrate: N[C@@H](Cc1ccccc1)C(=O)O; assay type: biochemical, Saccharomyces cerevisiae; conditions: 2 mM ATP, 2 mM [32P]PPi, 10 mM MgCl2, pH 7.2, 37 °C, stereochemistry of Phe not given
Source text: (§1) ATP/PPi exchange (amino acid activation) on ScctPheRS (Saccharomyces cerevisiae cytoplasmic PheRS; Yeast ct)

[2] = substrate: NC(Cc1cccc(O)c1)C(=O)O; assay type: biochemical, Saccharomyces cerevisiae; conditions: 2 mM ATP, 2 mM [32P]PPi, 10 mM MgCl2, pH 7.2, 37 °C, D,L-m-Tyr varied 20-2000 µM
Source text: as §1

[3] = substrate: N[C@@H](Cc1ccccc1)C(=O)O; assay type: biochemical, Escherichia coli; conditions: 2 mM ATP, 2 mM [32P]PPi, 10 mM MgCl2, pH 7.2, 37 °C, stereochemistry of Phe not given
Source text: (§2) ATP/PPi exchange (amino acid activation) on EcPheRS (E. coli phenylalanine-tRNA synthetase)

[4] = substrate: NC(Cc1cccc(O)c1)C(=O)O; assay type: biochemical, Escherichia coli; conditions: 2 mM ATP, 2 mM [32P]PPi, 10 mM MgCl2, pH 7.2, 37 °C, D,L-m-Tyr varied 20-2000 µM
Source text: as §2

Protein | Km [1] | kcat [1] | kcat/Km [1] | Km [2] | kcat [2] | kcat/Km [2] | Km [3] | kcat [3] | kcat/Km [3] | Km [4] | kcat [4] | kcat/Km [4]
B1 | 16 ± 2 µM | 26 ± 4 s⁻¹ | 1.6e+06 M⁻¹ s⁻¹ | 1150 ± 230 µM | 26 ± 4 s⁻¹ | 23000 M⁻¹ s⁻¹ |  |  |  |  |  | 
B2 |  |  |  |  |  |  | 18 ± 4 µM | 5.2 ± 2 s⁻¹ | 290000 M⁻¹ s⁻¹ | 247 ± 60 µM | 2.1 ± 0.8 s⁻¹ | 8000 M⁻¹ s⁻¹

— article PMC4066437, “Oxidation of cellular amino acid pools leads to cytotoxic mistranslation of the genetic code” (eLife, 2014)
